Measured values published in US20150010589A1.

Columns and labels:
[1] = molecular target: soluble collagen type III (pepsin-digested, non-fibrillar; BD Biosciences) (human) (UniProt P02461); assay: SPR, saliva injected over immobilized collagen type III, 120 sec at 20 µl/min
[2] = molecular target: soluble collagen type I (pepsin-digested, non-fibrillar, triple helical; BD Biosciences) (human) (UniProt P02452); assay: SPR, saliva injected over immobilized collagen type I, 120 sec at 20 µl/min
[3] = molecular target: horse tendon insoluble fibrillar Horm collagen (Chrono-Log), collagen I (95%) and III (5%) (horse); assay: cell-based or functional assay
[4] = molecular target: collagen-related peptide (CRP) GCO-(GPO)10-GCOG-NH2, cross-linked; assay: SPR, Aegyptin over immobilized cross-linked (GPO)10 peptide, two-state model
[5] = molecular target: collagen-related peptide (CRP) GCO-(GPO)10-GCOG-NH2, cross-linked; assay: SPR, Aegyptin over immobilized cross-linked (GPO)10 peptide, two-state model; Kd1
[6] = molecular target: collagen-related peptide (CRP) GCO-(GPO)10-GCOG-NH2, cross-linked; assay: SPR, Aegyptin over immobilized cross-linked (GPO)10 peptide, two-state model; Ka1
[7] = molecular target: collagen-related peptide (CRP) GCO-(GPO)10-GCOG-NH2, cross-linked; assay: SPR, Aegyptin over immobilized cross-linked (GPO)10, two-state binding model (the table prints 5.101 µM)

Sequence of soluble collagen type I (pepsin-digested, non-fibrillar, triple helical; BD Biosciences) (human) (P02452 179-1192 limits assumed, chain 1 of 2): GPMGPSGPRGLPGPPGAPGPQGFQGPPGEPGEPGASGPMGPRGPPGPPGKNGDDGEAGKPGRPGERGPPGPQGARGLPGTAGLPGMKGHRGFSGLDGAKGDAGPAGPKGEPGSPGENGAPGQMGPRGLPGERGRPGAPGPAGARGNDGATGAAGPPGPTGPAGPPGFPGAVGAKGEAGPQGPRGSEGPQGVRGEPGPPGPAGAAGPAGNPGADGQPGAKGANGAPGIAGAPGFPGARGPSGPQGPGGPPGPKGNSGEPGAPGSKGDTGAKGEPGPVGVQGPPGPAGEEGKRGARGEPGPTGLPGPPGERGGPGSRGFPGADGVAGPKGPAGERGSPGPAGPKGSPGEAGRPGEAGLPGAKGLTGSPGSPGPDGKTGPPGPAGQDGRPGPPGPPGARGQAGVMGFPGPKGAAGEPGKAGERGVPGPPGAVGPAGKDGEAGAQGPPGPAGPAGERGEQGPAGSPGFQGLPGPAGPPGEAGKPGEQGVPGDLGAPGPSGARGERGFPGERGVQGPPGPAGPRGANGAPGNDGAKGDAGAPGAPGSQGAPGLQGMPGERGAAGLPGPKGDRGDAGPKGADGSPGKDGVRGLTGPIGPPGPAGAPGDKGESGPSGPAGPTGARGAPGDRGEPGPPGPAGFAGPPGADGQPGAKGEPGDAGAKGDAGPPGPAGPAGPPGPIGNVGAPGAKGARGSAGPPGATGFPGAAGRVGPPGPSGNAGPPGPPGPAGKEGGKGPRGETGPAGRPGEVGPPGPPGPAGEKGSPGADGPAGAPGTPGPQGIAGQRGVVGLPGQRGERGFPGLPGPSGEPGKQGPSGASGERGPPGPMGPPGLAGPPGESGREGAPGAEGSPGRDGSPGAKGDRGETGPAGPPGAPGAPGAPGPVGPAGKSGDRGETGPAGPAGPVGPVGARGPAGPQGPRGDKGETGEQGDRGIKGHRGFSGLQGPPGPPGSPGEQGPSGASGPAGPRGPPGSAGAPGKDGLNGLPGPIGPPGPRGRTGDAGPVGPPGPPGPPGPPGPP
Sequence of soluble collagen type I (pepsin-digested, non-fibrillar, triple helical; BD Biosciences) (human) (P08123 91-1104 limits assumed, chain 2 of 2, further chain): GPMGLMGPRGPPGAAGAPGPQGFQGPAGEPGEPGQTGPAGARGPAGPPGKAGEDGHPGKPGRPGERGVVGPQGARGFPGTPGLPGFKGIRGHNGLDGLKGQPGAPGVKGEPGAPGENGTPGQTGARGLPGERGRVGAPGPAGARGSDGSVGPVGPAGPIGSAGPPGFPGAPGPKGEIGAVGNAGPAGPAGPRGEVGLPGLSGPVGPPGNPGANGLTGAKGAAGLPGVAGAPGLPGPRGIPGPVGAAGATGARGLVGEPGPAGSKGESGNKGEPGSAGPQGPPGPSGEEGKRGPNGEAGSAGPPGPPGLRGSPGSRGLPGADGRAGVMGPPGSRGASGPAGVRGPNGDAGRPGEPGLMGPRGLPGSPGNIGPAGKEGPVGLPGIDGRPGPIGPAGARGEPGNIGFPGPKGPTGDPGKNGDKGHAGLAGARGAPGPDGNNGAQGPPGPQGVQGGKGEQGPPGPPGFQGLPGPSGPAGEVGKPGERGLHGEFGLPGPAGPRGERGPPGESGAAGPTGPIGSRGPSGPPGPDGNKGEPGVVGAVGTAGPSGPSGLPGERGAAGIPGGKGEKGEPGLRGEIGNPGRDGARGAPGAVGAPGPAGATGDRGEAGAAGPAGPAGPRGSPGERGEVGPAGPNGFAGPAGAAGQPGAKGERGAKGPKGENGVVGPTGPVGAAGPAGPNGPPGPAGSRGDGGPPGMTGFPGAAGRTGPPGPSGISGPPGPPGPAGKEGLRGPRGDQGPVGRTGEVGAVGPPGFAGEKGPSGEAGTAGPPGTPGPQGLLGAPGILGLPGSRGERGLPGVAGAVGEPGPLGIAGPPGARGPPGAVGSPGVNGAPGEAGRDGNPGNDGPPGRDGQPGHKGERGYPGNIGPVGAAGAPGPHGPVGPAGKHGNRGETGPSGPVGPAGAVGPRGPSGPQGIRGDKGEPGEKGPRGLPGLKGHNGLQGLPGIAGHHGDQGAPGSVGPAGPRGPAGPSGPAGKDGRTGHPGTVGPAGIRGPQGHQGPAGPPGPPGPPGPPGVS
Sequence of soluble collagen type III (pepsin-digested, non-fibrillar; BD Biosciences) (human) (P02461 168-1196 limits assumed): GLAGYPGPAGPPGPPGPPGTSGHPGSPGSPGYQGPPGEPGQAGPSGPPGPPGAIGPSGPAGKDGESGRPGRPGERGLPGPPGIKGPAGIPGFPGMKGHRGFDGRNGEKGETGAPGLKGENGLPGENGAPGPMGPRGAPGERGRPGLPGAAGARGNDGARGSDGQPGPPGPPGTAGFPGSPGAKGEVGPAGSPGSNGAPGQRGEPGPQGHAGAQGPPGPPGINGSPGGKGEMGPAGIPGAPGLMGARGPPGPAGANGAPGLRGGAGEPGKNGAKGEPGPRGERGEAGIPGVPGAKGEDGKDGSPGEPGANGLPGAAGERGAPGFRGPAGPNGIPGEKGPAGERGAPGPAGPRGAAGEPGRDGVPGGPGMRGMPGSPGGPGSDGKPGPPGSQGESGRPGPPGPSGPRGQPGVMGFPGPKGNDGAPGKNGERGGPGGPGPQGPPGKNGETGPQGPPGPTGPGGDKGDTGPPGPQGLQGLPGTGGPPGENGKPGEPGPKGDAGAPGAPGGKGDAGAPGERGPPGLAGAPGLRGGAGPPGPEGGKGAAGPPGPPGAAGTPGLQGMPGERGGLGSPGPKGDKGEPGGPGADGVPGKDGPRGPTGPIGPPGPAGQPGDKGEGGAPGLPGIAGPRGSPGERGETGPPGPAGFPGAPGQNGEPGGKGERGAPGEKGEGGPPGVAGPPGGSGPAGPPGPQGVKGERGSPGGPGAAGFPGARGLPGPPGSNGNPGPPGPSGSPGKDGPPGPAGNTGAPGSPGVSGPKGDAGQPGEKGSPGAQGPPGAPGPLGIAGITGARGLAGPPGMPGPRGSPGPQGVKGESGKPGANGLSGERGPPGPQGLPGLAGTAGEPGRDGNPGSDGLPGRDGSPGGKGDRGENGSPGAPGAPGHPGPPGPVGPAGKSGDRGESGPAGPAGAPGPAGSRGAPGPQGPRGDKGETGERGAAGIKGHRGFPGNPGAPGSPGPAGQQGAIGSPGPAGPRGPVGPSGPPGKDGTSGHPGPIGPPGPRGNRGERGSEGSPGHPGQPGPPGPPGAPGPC

Substance “Ae. aegypti saliva (collected by oil-induced salivation)” has a Response (RU) [1] of 348 RU and a Response (RU) [2] of 556 RU.
In the case of “Aegyptin C-terminus-2 (137 aa), truncated form without GEEDA repeats (from UniProt O01949 137-273)”, the collagen-induced platelet aggregation [3] is reported as 3 µM.
With “recombinant Aegyptin (mature protein with C-terminal 6xHis tag, expressed in 293-F cells) (from UniProt O01949 20-273)” the Kd [4] was 5.1 µM, the Kd2 [4] was 0.0289 s⁻¹ and the koff [5] was 1.19 s⁻¹. The kon [6] was 206000 M⁻¹ s⁻¹ and the Kd [7] was 5.01 µM.
